These results are taken from article PMC4425231.

For one experiment, the target named is p50 dimerization domain (UniProt P25799). Description: AUC + SEC.
The target of experiment [1] is IκBβ (endogenous, MEF cytoplasmic extract) (mouse (endogenous in MEFs)) (UniProt Q60778). Nature of the experiment: kinetic model fitted to immunoblot abundances of IκBs in NFκB-knockout MEFs.
The target is the same in experiment [2]. Nature of the experiment: immunodepletion followed by deoxycholate EMSA. (In general: In EMSA bound probe runs differently from free probe, usually more slowly.)

IκBβ (endogenous, MEF cytoplasmic extract) (mouse (endogenous in MEFs)), sequence (Q60778 whole entry): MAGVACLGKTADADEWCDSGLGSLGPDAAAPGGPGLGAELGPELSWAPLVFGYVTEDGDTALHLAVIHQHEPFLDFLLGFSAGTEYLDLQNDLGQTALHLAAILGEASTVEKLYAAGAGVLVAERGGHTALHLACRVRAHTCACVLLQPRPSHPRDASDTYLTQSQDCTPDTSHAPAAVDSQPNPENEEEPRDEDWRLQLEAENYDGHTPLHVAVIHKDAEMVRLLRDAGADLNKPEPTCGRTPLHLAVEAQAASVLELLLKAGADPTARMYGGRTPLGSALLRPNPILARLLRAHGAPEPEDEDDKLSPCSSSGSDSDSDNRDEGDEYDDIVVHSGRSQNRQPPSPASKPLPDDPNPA
p50 dimerization domain, sequence (P25799 1-431): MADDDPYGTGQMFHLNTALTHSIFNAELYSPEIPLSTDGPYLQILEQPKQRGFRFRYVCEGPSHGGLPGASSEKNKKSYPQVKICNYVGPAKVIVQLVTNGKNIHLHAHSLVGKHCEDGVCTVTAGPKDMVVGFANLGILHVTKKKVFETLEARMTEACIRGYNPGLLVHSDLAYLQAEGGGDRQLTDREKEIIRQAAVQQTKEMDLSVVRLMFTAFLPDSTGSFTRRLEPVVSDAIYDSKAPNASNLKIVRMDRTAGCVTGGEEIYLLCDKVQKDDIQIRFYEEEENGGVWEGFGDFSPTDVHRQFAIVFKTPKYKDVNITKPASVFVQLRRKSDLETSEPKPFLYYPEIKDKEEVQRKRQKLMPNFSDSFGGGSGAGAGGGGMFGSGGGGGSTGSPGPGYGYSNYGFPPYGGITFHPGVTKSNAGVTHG

For the substance “RelA dimerization domain (from UniProt Q04207 1-549) (domain or fragment)”, in the experiment with p50 dimerization domain, the Kd was found to be 10 nM. In experiment [1], “RelA:RelA homodimer (endogenous, MEF cytoplasmic extract) (from UniProt Q04207 1-549) (complex)” returned a Kd of 0.0032 nM. In experiment [2], this substance gave a percent of the dimer bound to this IκB greater than 50%.

A word on the Kd: it is a measure of binding affinity in units of concentration.
